Results: PMC13228514 (2026)

Experiments:
Assay in all cases: BLI; intact antibody
39G7 = biological target: 39G7
8D1 = biological target: 8D1
anti-LHFPL5 = biological target: anti-LHFPL5

Sequence of 8D1 (Q99PJ1 27-1462): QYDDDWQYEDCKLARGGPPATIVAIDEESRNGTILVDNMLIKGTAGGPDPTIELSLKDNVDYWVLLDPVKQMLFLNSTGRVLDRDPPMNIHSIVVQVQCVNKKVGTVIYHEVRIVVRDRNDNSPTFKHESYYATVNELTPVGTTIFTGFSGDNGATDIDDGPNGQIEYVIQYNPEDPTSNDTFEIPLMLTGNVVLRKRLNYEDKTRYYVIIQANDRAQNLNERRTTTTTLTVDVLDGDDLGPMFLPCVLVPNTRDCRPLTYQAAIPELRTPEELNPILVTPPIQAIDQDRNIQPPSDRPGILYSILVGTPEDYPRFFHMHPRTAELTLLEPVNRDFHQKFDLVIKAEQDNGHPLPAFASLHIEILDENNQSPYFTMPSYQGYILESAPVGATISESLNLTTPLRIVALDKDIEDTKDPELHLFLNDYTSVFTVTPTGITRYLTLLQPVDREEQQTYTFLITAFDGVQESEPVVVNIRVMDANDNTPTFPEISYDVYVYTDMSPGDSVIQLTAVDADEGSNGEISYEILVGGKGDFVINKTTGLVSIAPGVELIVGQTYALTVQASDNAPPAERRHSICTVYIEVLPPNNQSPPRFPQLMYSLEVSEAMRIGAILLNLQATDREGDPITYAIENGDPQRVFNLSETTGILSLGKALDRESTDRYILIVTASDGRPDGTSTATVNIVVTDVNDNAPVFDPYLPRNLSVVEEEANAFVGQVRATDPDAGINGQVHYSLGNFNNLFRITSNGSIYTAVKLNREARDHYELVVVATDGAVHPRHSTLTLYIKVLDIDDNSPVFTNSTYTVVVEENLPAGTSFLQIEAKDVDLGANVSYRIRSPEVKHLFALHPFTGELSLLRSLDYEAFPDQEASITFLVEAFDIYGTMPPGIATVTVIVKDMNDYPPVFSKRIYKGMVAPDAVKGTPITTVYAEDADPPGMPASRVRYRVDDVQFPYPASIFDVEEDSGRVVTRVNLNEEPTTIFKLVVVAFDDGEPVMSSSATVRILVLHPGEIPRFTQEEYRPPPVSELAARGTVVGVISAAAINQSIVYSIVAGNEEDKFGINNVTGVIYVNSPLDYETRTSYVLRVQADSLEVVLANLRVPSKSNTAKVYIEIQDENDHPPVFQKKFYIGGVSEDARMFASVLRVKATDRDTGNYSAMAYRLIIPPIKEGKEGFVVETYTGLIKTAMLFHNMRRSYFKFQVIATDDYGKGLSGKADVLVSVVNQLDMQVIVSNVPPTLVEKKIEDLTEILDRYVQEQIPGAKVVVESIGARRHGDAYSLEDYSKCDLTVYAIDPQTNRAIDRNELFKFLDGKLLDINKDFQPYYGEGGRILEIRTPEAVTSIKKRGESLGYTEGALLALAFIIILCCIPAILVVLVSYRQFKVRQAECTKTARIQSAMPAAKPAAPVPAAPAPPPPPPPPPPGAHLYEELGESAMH
Sequence of 39G7 (Q99PJ1 27-1462): as above

B1: recombinant protocadherin-15 (PCDH15), residues 1-1462 (EC1-EC11 and part of the cytoplasmic region) (domain or fragment)
chain: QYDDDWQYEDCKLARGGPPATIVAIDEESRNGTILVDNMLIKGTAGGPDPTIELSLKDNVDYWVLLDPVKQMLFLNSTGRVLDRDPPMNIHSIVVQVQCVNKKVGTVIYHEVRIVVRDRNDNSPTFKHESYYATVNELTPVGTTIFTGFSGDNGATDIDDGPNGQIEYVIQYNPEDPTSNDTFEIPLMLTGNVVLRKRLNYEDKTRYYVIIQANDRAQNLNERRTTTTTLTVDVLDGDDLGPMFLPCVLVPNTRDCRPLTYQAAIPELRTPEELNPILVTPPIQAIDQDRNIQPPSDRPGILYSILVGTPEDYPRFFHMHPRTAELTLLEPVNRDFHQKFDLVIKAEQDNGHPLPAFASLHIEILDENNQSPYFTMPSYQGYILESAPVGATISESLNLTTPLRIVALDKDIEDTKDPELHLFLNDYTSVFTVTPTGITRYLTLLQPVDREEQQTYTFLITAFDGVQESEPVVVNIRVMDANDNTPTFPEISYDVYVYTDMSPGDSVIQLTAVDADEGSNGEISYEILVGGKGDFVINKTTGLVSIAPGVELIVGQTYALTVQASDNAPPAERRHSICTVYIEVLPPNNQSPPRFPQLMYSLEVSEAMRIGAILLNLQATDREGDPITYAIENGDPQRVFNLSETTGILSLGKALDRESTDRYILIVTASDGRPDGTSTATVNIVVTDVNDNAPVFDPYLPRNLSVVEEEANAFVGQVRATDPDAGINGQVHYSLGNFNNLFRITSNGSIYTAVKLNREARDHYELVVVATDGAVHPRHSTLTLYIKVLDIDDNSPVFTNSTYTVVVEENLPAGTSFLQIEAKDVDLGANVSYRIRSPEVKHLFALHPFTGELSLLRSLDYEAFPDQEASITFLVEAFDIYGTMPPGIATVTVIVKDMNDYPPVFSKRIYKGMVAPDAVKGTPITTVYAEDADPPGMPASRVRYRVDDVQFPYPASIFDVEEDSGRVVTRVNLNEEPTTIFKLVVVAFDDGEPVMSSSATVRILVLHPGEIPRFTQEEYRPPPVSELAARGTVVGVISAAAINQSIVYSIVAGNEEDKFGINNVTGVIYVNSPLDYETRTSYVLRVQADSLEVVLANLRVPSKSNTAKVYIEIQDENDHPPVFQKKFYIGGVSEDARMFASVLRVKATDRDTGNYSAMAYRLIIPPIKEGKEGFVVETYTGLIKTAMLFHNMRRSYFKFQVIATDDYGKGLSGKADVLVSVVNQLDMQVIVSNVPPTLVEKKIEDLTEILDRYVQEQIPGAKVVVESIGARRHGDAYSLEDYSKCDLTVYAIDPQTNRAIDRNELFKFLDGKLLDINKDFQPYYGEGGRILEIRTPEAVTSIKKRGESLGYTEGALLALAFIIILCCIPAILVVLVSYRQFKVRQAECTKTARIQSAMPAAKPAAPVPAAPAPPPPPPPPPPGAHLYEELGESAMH
Kd (39G7): 0.2 nM
koff (39G7): 2e-05 s⁻¹
Kd (8D1): 0.05 nM
koff (8D1): 3e-05 s⁻¹

B2: recombinant lipoma HMGIC fusion partner-like protein 5 (LHFPL5), residues 2-219 (natural protein)
chain: VKLLPAQEAAKIYHTNYVRNSRAVGVMWGTLTICFSVLVMALFIQPYWIGDSVSTPQAGYFGLFSYCVGNVLSSELICKGGPLDFSSIPSRAFKTAMFFVALAMFLIIGSIICFSLFFVCNTATVYKICAWMQLAAATGLMIGCLVYPDGWDSSEVRRMCGEQTGKYTLGHCTIRWAFMLAILSIGDALILSFLAFVLGYRQDKLLPDDYKADGNEEV
Kd (anti-LHFPL5): 1 nM
koff (anti-LHFPL5): 5e-05 s⁻¹
